Assay results as given in patent US20250170267A1, “ANTIBODY-DRUG CONJUGATE PRECURSOR AND INTERMEDIATE FOR SYNTHESIS THEREOF” (UBE Corporation, priority 2022, published 2025).
Read-outs that look alike come from different tables or passages of the source. Numbered stars: 1 amine (or outer) side, 2 acyl side, 3 side chain; on linkers, the order of the positions; unused ones are H or OH. Square brackets hold non-standard residues; d marks the D form. Peptide text beside a SMILES is read from it. * marks the point of attachment. Exatecan = CC[C@@]1(O)C(=O)OCc2c1cc1n(c2=O)Cc2c-1nc1cc(F)c(C)c3c1c2[C@@H](N*)CC3; X7 = C[C@@H](N*)[C@@H](OC(=O)OCc1cn(C2OC(C(=O)O)C(O)C(O)C2O)nn1)c1ccccc1; βAla(2S-maleimido) = O=C1C=CC(=O)N1[C@@H](CN[*:1])C(=O)[*:2]; Dolaproine = CO[C@@H]([C@@H]1CCCN1)[C@@H](C)C(=O)O; Propanoyl(3-maleimido) = O=C1C=CC(=O)N1CCC(=O)*; X5 = C[C@@H](N[*:1])[C@@H](OC(=O)[*:2])c1ccccc1; X10 = COCCOC(=O)O[C@@H](c1ccccc1)[C@@H](C)N*; Dil = CC[C@H](C)[C@H](NC)[C@@H](CC(=O)O)OC; X6 = O=C(O)C1OC(n2cc(CN*)nn2)C(O)C(O)C1O; PABC = O=C(OCc1ccc(N[*:1])cc1)[*:2]; X1 = C[C@@H](N*)[C@@H](O)c1ccccc1; hSer(lactone) = O=C1OCC[C@@H]1N*; Cit = NC(=O)NCCC[C@H](N)C(=O)O; PEG4 = NCCOCCOCCOCCOCCC(=O)O; NMeV = CN[C@H](C(=O)O)C(C)C; X2 = O=C1CC[C@@H](C(=O)*)O1; Sar = CNCC(=O)O

What was measured:
human liver lysosome = experiment: Metabolism test using human liver lysosomal fraction; format: in vitro ADME; conditions: 37° C., 24 hours, released drug, LC-MS/MS
Method: To a reaction composition solution (X10 Catabolic Buffer (manufactured by SEKISUI-Xenotech, LLC., K5200))(60 μL) in which human liver lysosome (manufactured by SEKISUI-Xenotech, LLC., Cat No. H610.L 2.5 mg/mL)(corresponding to 0.125 mg of protein) was suspended and distilled water (manufactured by FUJIFILM Wako Pure Chemical Corporation, for HPLC)(10 μL) was added 1.2 μM test compound (antibody-drug conjugate produced in ADC Production examples)(25 μL) dissolved in PBS to prepare a reaction solution. After the reaction solution was incubated at 37° C. for 24 hours, “an antitumor drug molecule or an analog thereof, or a derivative thereof” released from the antibody-drug conjugate into the reaction solution was quantified by LC-MS/MS (high performance liquid chromatography/mass spectrometer system) under the following conditions. LC-MS/MS analysis conditions
(§1) LC: LC20 or LC30 HPLC system manufactured by Shimadzu Corporation
(§2) Column: Phenomenex Kinetex C18 (50×2.1 mm, 2.6 μm)
(§3) Column temperature: 40° C.
(§4) Mobile phase A: 0.1% aqueous solution of formic acid, Mobile phase B: 0.1% solution of formic acid in a mixture of 50% acetonitrile/methanol
(§5) Mode: Positive or Negative
(§6) The release rate (%) of drug was calculated by the following equation.

human liver Cathepsin B = target: T1, human liver Cathepsin B (Homo sapiens, UniProt P07858); experiment: Metabolism test using human liver Cathepsin B; format: in vitro ADME; conditions: 37° C., 24 hours, released drug, LC-MS/MS
T1 construct: human liver Cathepsin B (manufactured by Sigma-Aldrich Co. LLC, Cat No. C8571 25 μg/vial); purchased Sigma-Aldrich Co. LLC C8571; host or cells: human liver
Method: To human liver Cathepsin B (manufactured by Sigma-Aldrich Co. LLC, Cat No. C8571 25 μg/vial)(corresponding to 400 Unit/mL)(5 μL), X10 Catabolic Buffer (manufactured by SEKISUI-Xenotech, LLC., K5200)(10 μL), 2.5 mM Bovine Serum Albumin (manufactured by FUJIFILM Wako Pure Chemical Corporation, Cat No. 012-15093)(5 μL), and distilled water (manufactured by FUJIFILM Wako Pure Chemical Corporation, for HPLC)(55 μL) was added 1.2 μM test compound (antibody-drug conjugate prepared in ADC Production examples)(25 μL) dissolved in PBS to prepare a reaction solution. After the reaction solution was incubated at 37° C. for 24 hours, “an antitumor drug molecule or an analog thereof, or a derivative thereof” released from the antibody-drug conjugate into the reaction solution was quantified by LC-MS/MS (high performance liquid chromatography/mass spectrometer system) under the following conditions. LC-MS/MS analysis conditions
as §1, §2, §3, §4, §5, §6

porcine tubulin = target: T2, porcine tubulin (Sus scrofa, UniProt P02550+P02554); experiment: Tubulin polymerization inhibition test; format: biochemical
T2 construct: purchased Cytoskeleton, Inc. BK011P
Method: For measuring the tubulin polymerization inhibitory action, Tubulin Polymerization Assay Kit (manufactured by Cytoskeleton, Inc., BK011P) was used. A PIPES buffer containing porcine tubulin, GTP, MgCl2, EGTA, Glycerol, and a fluorescent reporter was prepared under ice-cooling as a reaction solution. The reaction solution was ice-cooled until it was used. A test compound solution was prepared by an aqueous solution containing 1.5% DMSO, and added to a 96 well plate (manufactured by Corning Inc., 3686) at 5 μL/well. The reaction solution was added thereto at 50 μL/well, the plate was placed in a microplate reader (FlexStation 3, manufactured by Molecular Device, LLC) in which the internal temperature was set to 37° C. in advance, and the fluorescence intensity measurement (excitation wavelength: 360 nm, detection wavelength: 420 nm) of each well was started. The fluorescence intensity was measured once every minute, and the measurement was continued for 60 minutes.
The tubulin polymerization inhibition rate (%) was calculated by the following equation.
[formula] • a: average amount of fluorescence intensity increase in vehicle-treated well (n=2) • b: average amount of fluorescence intensity increase in test compound-treated well (n=2)
Amount of fluorescence intensity increase: (average fluorescence intensity after 51 to 60 minutes from measurement start)−(average fluorescence intensity after 1 to 6 minutes from measurement start)

[1] = porcine tubulin, 37° C., fluorescence over 60 minutes, read-out: IC50 value (tubulin polymerization inhibition)

T2 sequence (P02550 whole entry): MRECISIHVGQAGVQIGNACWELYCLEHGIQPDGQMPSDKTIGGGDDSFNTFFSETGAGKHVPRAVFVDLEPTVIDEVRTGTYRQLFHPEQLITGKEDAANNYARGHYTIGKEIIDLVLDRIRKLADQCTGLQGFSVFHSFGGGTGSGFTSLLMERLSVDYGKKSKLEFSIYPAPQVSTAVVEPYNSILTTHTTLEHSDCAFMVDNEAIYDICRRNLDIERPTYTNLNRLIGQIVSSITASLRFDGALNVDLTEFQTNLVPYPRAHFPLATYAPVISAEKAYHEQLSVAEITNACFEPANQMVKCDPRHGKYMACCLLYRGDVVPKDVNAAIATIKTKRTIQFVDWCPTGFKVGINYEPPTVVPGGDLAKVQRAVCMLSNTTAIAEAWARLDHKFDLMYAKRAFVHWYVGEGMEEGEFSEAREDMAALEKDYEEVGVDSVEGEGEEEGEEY
T2 sequence (P02554 whole entry): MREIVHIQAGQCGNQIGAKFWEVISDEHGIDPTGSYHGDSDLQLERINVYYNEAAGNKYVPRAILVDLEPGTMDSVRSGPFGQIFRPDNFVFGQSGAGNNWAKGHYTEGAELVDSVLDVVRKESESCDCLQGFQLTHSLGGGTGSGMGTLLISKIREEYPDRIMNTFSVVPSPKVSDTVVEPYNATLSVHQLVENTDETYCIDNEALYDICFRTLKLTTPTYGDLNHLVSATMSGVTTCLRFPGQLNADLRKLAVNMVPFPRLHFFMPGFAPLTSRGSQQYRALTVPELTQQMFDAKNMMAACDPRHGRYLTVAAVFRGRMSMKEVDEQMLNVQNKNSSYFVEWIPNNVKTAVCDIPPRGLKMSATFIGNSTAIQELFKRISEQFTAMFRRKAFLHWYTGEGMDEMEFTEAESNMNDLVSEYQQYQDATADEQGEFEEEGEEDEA

SMILES | Release rate (%) of drug from ADC (human liver lysosome) [%] | Release rate (%) of drug from ADC (human liver Cathepsin B) [%] | IC50 (porcine tubulin; [1]) [µM] | IC50 (porcine tubulin) [µM]
CC[C@@]1(O)C(=O)OCc2c1cc1n(c2=O)Cc2c-1nc1cc(F)c(C)c3c1c2[C@@H](NC(=O)CN(C)C(=O)OCc1ccc(NC(=O)[C@H](CCCNC(N)=O)NC(=O)[C@@H](NC(=O)[C@H](CC(=O)N[C@H]2CCOC2=O)NC(=O)CCOCCOCCOCCOCCNC(=O)CCN2C(=O)C=CC2=O)C(C)C)cc1)CC3 [Example 4] ({Propanoyl(3-maleimido)-PEG4}-D(hSer(lactone))V[Cit][PABC][Sar]-Exatecan) | 76 | 97 |  | 
CC[C@@]1(OC(=O)OCc2ccc(NC(=O)[C@H](CCCNC(N)=O)NC(=O)[C@@H](NC(=O)[C@H](CC(=O)N[C@H]3CCOC3=O)NC(=O)CCOCCOCCOCCOCCNC(=O)[C@H](CNC(=O)CCP(=O)(O)O)N3C(=O)C=CC3=O)C(C)C)cc2)C(=O)OCc2c1cc1n(c2=O)Cc2c-1nc1cc(F)c(C)c3c1c2[C@@H](NC(C)=O)CC3 [Example 10] | 61 | 28 |  | 
CC[C@H](C)[C@@H]([C@@H](CC(=O)N1CCC[C@H]1[C@H](OC)[C@@H](C)C(=O)N[C@H](C)[C@@H](OC(=O)OCCOC)c1ccccc1)OC)N(C)C(=O)[C@@H](NC(=O)[C@@H](NC)C(C)C)C(C)C [Example U-012] (H-[NMeV]V[Dil][Dolaproine]-X10) |  |  | ≤ 3 | 
CC[C@@]1(O)C(=O)OCc2c1cc1n(c2=O)Cc2c-1nc1cc(F)c(C)c3c1c2[C@@H](NC(=O)COP(=O)(O)OCc1ccc(NC(=O)[C@H](CCCNC(N)=O)NC(=O)[C@@H](NC(=O)[C@H](CC(=O)N[C@H]2CCOC2=O)NC(=O)CCOCCOCCOCCOCCNC(=O)[C@H](CNC(=O)CCP(=O)(O)O)N2C(=O)C=CC2=O)C(C)C)cc1)CC3 [Example 12] | 3.5 | 106 |  | 
CC[C@H](C)[C@@H]([C@@H](CC(=O)N1CCC[C@H]1[C@H](OC)[C@@H](C)C(=O)N[C@H](C)[C@@H](OC(=O)OCc1cn(C2OC(C(=O)O)C(O)C(O)C2O)nn1)c1ccccc1)OC)N(C)C(=O)[C@@H](NC(=O)[C@@H](NC)C(C)C)C(C)C (some centres unmarked) [Example U-020] (H-[NMeV]V[Dil][Dolaproine]-X7) |  |  | ≤ 3 | 
CC[C@H](C)[C@@H]([C@@H](CC(=O)N1CCC[C@H]1[C@H](OC)[C@@H](C)C(=O)N[C@H](C)[C@@H](O)c1ccccc1)OC)N(C)C(=O)[C@@H](NC(=O)[C@H](C(C)C)N(C)C)C(C)C [Example U-010] |  |  |  | ≤ 3
CC[C@H](C)[C@@H]([C@@H](CC(=O)N1CCC[C@H]1[C@H](OC)[C@@H](C)C(=O)N[C@H](C)[C@@H](O)c1ccccc1)OC)N(C)C(=O)[C@@H](NC(=O)[C@H](C(C)C)N(C)C(=O)OCc1ccc(NC(=O)[C@H](CCCNC(N)=O)NC(=O)[C@@H](NC(=O)[C@H](CC(=O)N[C@H]2CCOC2=O)NC(=O)CCOCCOCCOCCOCCNC(=O)[C@H](CNC(=O)[C@@H]2CCC(=O)O2)N2C(=O)C=CC2=O)C(C)C)cc1)C(C)C [Example 7] (X2-[βAla(2S-maleimido)][PEG4]D(hSer(lactone))V[Cit][PABC][NMeV]V[Dil][Dolaproine]-X1) | 86 | 65 |  | 
CC[C@H](C)[C@@H]([C@@H](CC(=O)N1CCC[C@H]1[C@H](OC)[C@@H](C)C(=O)N[C@H](C)[C@@H](O)c1ccccc1)OC)N(C)C(=O)[C@@H](NC(=O)[C@H](C(C)C)N(C)CCONC)C(C)C [Example U-013] |  |  | ≤ 3 | 
CC[C@H](C)[C@@H]([C@@H](CC(=O)N1CCC[C@H]1[C@H](OC)[C@@H](C)C(=O)N[C@H](C)[C@@H](OC(=O)NCCOCCOCCOCCOCCOCCOCCOCCOCCOCCOCCOCCOC)c1ccccc1)OC)N(C)C(=O)[C@@H](NC(=O)[C@@H](NC)C(C)C)C(C)C [Example U-015] |  |  | ≤ 3 | 
CC[C@H](C)[C@@H]([C@@H](CC(=O)N1CCC[C@H]1[C@H](OC)[C@@H](C)C(=O)N[C@H](C)[C@@H](OC(=O)NCc1cn(C2OC(C(=O)O)C(O)C(O)C2O)nn1)c1ccccc1)OC)N(C)C(=O)[C@@H](NC(=O)[C@@H](NC)C(C)C)C(C)C (some centres unmarked) [Example U-019] (H-[NMeV]V[Dil][Dolaproine][X5]-X6) |  |  | ≤ 3 | 
